Numbering of substitutions follows the chain as printed.

These results are taken from patent publication US20220056137A1 (GIGAGEN, published 2022).

The chains are these.
B1: antibody A3 (antibody, V domains shown)
VL: AIQMTQSPSSLSASVGDRVTITCRASQDIRNDLGWYQQQPGKAPKLLIYAASSLQSGVPSRFSGSGSGTDFTLTISSLQPEDFATYYCLQDYNYPPTFGQGTKVEIK
V domain: QVQLVESGGGVVQPGRSLRLSCAASGFTFSNYGMHWVRQAPGKGLEWVAVIWFDGNTKYYTDSVKGRFTISRDNSKNTLYLQMNSLRAEDTAVYYCARDTTMVPMDVWGQGTTATVSS
notes: Tested as full-length mAb made in CHO cells; also called L3H3
B2: antibody A4 (antibody, V domains shown)
VH: B1 V domain with T100I, A114V
VL: B1 VL
notes: Tested as full-length mAb made in CHO cells; also called L4H4
B3: antibody A2 (antibody, V domains shown)
VH: EVQLVESGGGLVQPGGSLRLSCAASGFTFSRYDMSWVRQAPGKGLEWVSTISGSGGSTYYADSVKGRFTISRDNSKTTLYLQMISLRAEDTAVYYCAKAGFTMIVVAFDYWGQGTLVTVSS
VL: DIQMTQSPSSLSASVGDRVTITCRASQGISNYLAWFQQKPGKAPKSLIYAASSLQSGVPSKFSGSGSGTDFTLTISSLQPEDFATYYCQQYNSYPYTFGQGTKLEIK
notes: Tested as full-length mAb made in CHO cells; also called L2H2
B4: antibody A8 (antibody, V domains shown)
VH: QVQLVQSGAEVKKPGASVKVSCKASGYTFTSYGISWVRQAPGQGLEWMGWISAYNGSTNYAQKLQGRVTMTTDTSTSTAYMELRSLRSDDTAVFYCARDDRIAVADYYYYFGMDVWGQGTTVTVSS
VL: B3 VL with S30R, Y32D, A34G, F36Y, S46R, K61R, D70E, Q89L, Y91H
notes: Tested as full-length mAb made in CHO cells; also called L8H8
B5: antibody A7 (antibody, V domains shown)
VH: QVQLQESGPGLVKPSETLSLTCTVSGGSISSYYWSWIRQPPGKGLEWIGYIFYSGSTNYNPSLKSRVTISVDTSKNQFSLKLSSVTAADTAVYFCARDNWHDGGVDYWGQGTLVTVSS
VL: EIVMTQSPTTLSLSPGERATLSCRASQSVSSSYLSWYQQKPGQAPRLLIYGASTRATGIPARFSGSGSGTDFTLTISSLQPEDFAVYYCQQDYNLRTFGQGTKVEIK
notes: Tested as full-length mAb made in CHO cells; also called L7H7
B6: antibody A1 (antibody, V domains shown)
VH: QVQLVQSGAEVKKPGASVKVSCKASGFTFTSYDINWVRQATGQGLEWMGWMHPNSGITGYAQKFQGRVTMTRNTSISTAYMELSSLSSEDTAVYFCARYYYVSGSYDYWGQGTLVTVSS
VL: EIVMTQSPATLSLSPGERATLSCWASQSVSSSYLSWYQQKPGQAPRLLIYGASTRATGIPARFSGSGSGTDFTLTISSLQPEDFAVYYCQQDYNLPYTFGQGTKLEIK
notes: Tested as full-length mAb made in CHO cells; also called L1H1
B7: antibody A5 (antibody, V domains shown)
VH: QVQLVESGGGVVQPGRSLRLSCAASGFAFSSYGMHWVRQAPGKGLEWVALIWFDGNNKFYADSVKGRFTISRDNSKNTLYLQMNSLRAEDTAVYYCARDTTAASFDYWGQGTLVTVSS
VL: B6 VL with W24R, S32T, Y50F, Y97P, Q101P, L105V, E106D
notes: Tested as full-length mAb made in CHO cells; also called L5H5
B8: antibody A25 (antibody, V domains shown)
VH: B6 VH with N54K, S85N, Y100N
VL: B6 VL with N94Y
notes: Derived from a mutagenesis screen of A1; Tested as full-length antibody; also called L25H25
B9: antibody A22 (antibody, V domains shown)
VH: QVQLVQSGAEVKKPGASVKVSCKASGYTFTSYGISWVRQAPGQGLEWMGWISAYNGNTNYAQKLQGRVTMTTDTSTSTAYMELRSLRSDDTAVYYCARGFYYGSWYFDYWGQGTLVTVSS
VL: B3 VL with N31S, Y32W, F36Y, G41E, K61R, Y96P, F98V, Q100G, L104V
notes: Tested as full-length mAb made in CHO cells; also called L22H22

T1 sequence (Q9NZQ7 19-290 limits assumed): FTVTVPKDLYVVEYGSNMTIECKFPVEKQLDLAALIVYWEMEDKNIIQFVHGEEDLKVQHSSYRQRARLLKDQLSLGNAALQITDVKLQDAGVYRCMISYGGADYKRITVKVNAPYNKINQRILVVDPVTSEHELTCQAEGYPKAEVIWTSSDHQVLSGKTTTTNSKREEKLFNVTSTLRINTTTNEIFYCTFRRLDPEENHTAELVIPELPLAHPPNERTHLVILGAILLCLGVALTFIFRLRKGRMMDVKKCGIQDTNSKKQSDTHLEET

One experiment has as its target T1, PD-L1 expressed on CHO cells (human, UniProt Q9NZQ7 19-290). Kind of experiment: cell-based or functional assay.
As to B1, the “Promega assay antagonist (EC50, ug/mL)” value was 0.12 µg/mL.

For B2, the “Promega assay antagonist (EC50, ug/mL)” value came to 0.198 µg/mL.

Take B3: the “Promega assay antagonist (EC50, ug/mL)” value is 0.042 µg/mL.

In the case of B4, the “Promega assay antagonist (EC50, ug/mL)” value stood at 0.621 µg/mL.

Turning to B5, the “Promega assay antagonist (EC50, ug/mL)” value was 0.151 µg/mL.

On to B6, for which the “Promega assay antagonist (EC50, ug/mL)” value is 0.0415 µg/mL.

For the molecule B7, the “Promega assay antagonist (EC50, ug/mL)” value is 0.0985 µg/mL.

For B8, the “Promega assay antagonist (EC50, ug/mL)” value is 0.063 µg/mL.

The target in another experiment is T2, cyno PD-L1 (cyno).
T2 construct: Soluble analyte in BLI
Kind of experiment: BLI (Octet), antibody on AHC biosensor, cyno PD-L1 as analyte.
Method: (§1) For BLI, antibodies were loaded onto an Anti-Human IgG Fc (AHC) biosensor using the Octet Red96 system (ForteBio). Loaded biosensors were dipped into antigen dilutions beginning at 300 nM, with 6 serial dilutions at 1:3. Kinetic analysis was performed using a 1:1 binding model and global fitting.
For orientation: Kd means a measure of binding affinity in units of concentration. A lower Kd goes with higher affinity. The molecule B1 registered a Kd of 8.3 nM.

Consider B2, for which binding was put at a Kd of 11.3 nM.

B3 gave a Kd of 5.2 nM.

B9 gave a Kd of 38.5 nM.

B4 showed a Kd of 18.9 nM.

For the molecule B5, the affinity, expressed as Kd, was 23 nM.

Molecule B6 came in with a Kd of 0.31 nM.

Turning to B7, the dissociation constant Kd stood at 8.6 nM.

For a further experiment, the target named is T3, human PD-L1 protein (soluble) (human, UniProt Q9NZQ7 19-239).
T3 construct: also called PD-L1 (R&D Systems); His-tagged PD-L1 protein
T3 sequence (Q9NZQ7 19-239 limits assumed): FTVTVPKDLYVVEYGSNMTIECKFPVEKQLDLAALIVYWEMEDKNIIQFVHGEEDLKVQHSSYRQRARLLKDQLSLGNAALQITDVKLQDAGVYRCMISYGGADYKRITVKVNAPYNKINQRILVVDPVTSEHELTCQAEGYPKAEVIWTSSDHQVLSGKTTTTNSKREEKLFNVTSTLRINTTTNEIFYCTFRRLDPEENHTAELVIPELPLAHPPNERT
Kind of experiment: BLI (Octet), antibody on AHC biosensor, PD-L1 as analyte.
Method: as §1
A word on the koff: it is the rate constant with which the complex falls apart. A word on the kon: it is a measure of how fast the partners come together. The molecule B8 displayed a Kd of 2.44 nM, an off-rate (koff) of 0.000809 s⁻¹ and a kon of 331000 M⁻¹ s⁻¹.

Another experiment has as its target T3, human PD-L1 protein (soluble). The description is as above. The source holds these as a separate data set.
Method: as §1
Molecule B8 returned a Kd of 2.4 nM.

The target of the next experiment is T1, PD-L1 expressed on CHO cells. Kind of experiment: flow cytometry on PD-L1 expressing Flp-In CHO cells. (A flow cytometer gives signals particle by particle.)
Method: For cell surface binding studies, PD-L1 expressing Flp-In CHO (Thermo Fisher Scientific) cells were generated and mixed at a 50:50 ratio. One million cells were stained with 1 μg of the disclosed anti-PD-L1 recombinant antibodies in 200 μl of MACS Buffer (DPBS with 0.5% bovine serum albumin and 2 mM EDTA) for 30 minutes at 4 C. Cells were then co-stained with anti-human irrelevant target-APC and anti-human IgG Fc-PE antibodies for 30 minutes at 4 C. An anti-human PD-L1 antibody was used as a control for these mixing experiments and cell viability was assessed with DAPI. Flow cytometry analysis was conducted on a BD Influx at the Stanford Shared FACS Facility and data was analyzed using FlowJo.
B9: the binding result is given as “binds”.

For another experiment, the target named is T3, human PD-L1 protein (soluble). Kind of experiment: SPR, mAb captured on anti-human IgG Fc, PD-L1 as analyte.
Method: (§2) The surface was then deactivated with 1 M ethanolamine pH 8.5 (Carterra Inc.). Running buffer used for the lawn immobilization was HBS-EPC (10 mM HEPES, 150 mM NaCl, 3 mM EDTA, 0.05% Tween 20, pH 7.4; Teknova).
(§3) The sensor chip was then transferred to a continuous flow microspotter (CFM; Carterra Inc.) for array capturing. The mAb supernatants were diluted 50-fold (3-10 mg/mL final concentration) into HBS-EPC with 1 mg/mL BSA. The samples were each captured twice with 15-minute and 4-minute capture steps on the first and second prints, respectively, to create multiple densities, using a 65 mL/min flow rate. The running buffer in the CFM was also HBS-EPC.
(§4) Next, the sensor chip was loaded onto an SPR reader (MX-96 system; Ibis Technologies) for the kinetic analysis. […] PD-L1 injections were 5 minutes with a 15-minute dissociation at 8 mL/second in a non-regenerative kinetic series. An injection of the goat anti-Human IgG Fc capture antibody at 75 mg/mL was injected at the end of the series to verify the capture level of each mAb. Binding data was double referenced by subtracting an interspot surface and a blank injection and analyzed for ka (on-rate), kd (off-rate), and KD (affinity) using the Kinetic Interaction Tool software (Carterra Inc.).
For the molecule B1, the affinity, expressed as Kd, was 5 nM.

The molecule B2 had a Kd of 6.4 nM.

B3 had a Kd of 3.5 nM.

As to B4, binding was put at a Kd of 22 nM.

In the case of B5, the Kd amounted to 17 nM.

The molecule B6 returned a Kd of 0.13 nM.

B7 had a dissociation constant Kd of 15 nM.

The next experiment shares this target. The description is as above. The source holds these as a separate data set.
Method: as §2, §3, §4
The molecule B1 returned a Kd of 5.14 nM, an off-rate (koff) of 0.0019 s⁻¹ and a kon of 370000 M⁻¹ s⁻¹.

In the case of B2, the Kd worked out at 6.25 nM, the koff turned out to be 0.001 s⁻¹ and the on-rate constant (kon) stood at 160000 M⁻¹ s⁻¹.

In the case of B3, the Kd was 3.45 nM, the koff worked out at 0.0038 s⁻¹ and the on-rate (kon) is 1.1e+06 M⁻¹ s⁻¹.

In turn, B4 gave a Kd of 22.8 nM, a koff of 0.013 s⁻¹ and a kon of 570000 M⁻¹ s⁻¹.

In turn, B5 showed a Kd of 16.7 nM, a koff of 0.0095 s⁻¹ and a kon of 570000 M⁻¹ s⁻¹.

Consider B6, for which the Kd was 0.13 nM, the off-rate (koff) turned out to be 0.00013 s⁻¹ and the kon came to 1e+06 M⁻¹ s⁻¹.

B7 returned a Kd of 14.6 nM, a koff of 0.0086 s⁻¹ and an on-rate (kon) of 590000 M⁻¹ s⁻¹.

For a further experiment, the target named is T4, rhPD-L1-Fc (human, UniProt Q9NZQ7 19-239, limits assumed).
T4 construct: Recombinant human PD-L1-Fc coated on ELISA plates; not shown: Fc part
T4 sequence (Q9NZQ7 19-239 limits assumed): as above
Kind of experiment: competition ELISA: plate-bound rhPD-L1-Fc, antibody titrated, competitor rhCD80-His detected. A general note: In an ELISA, binding on a coated surface is turned into a signal by an enzyme label.
What is called EC50 is the concentration at which the effect is half-maximal. High values mean lower potency in that assay, low ones higher potency in that assay. B1: the response was half-maximal at 0.99 µg/mL (EC50).

As for B2, a half-maximal response (EC50) required 1.25 µg/mL.

B3 displayed an EC50 of 0.87 µg/mL.

B4 showed an EC50 of 0.46 µg/mL.

B5 showed an EC50 of 1.88 µg/mL.

In turn, B6 yielded an EC50 of 0.4 µg/mL.

As to B7, the EC50 worked out at 0.97 µg/mL.

For the molecule B8, the midpoint of the response, the EC50, lay at 0.26 µg/mL.
